The target of series [1] is T1, IL-17 (Homo sapiens, UniProt Q16552 Q16552:24-155).
T1 sequence: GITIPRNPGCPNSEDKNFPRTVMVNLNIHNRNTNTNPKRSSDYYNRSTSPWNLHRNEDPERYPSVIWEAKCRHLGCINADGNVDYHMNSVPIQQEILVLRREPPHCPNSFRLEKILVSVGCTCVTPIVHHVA
Put plainly: SPR; IL-17 150 nM, aptamer 12.5 or 50 nM. The following applies: chain copies: 2. As to the method: Whether the synthesized aptamers inhibit the binding of IL-17 and IL-17 receptor was evaluated by the surface plasmon resonance method.
For the measurement, BIAcore T100 manufactured by GE Healthcare Bio Sciences was used. […] As an analyte, IL-17 (150 nM) and each aptamer (12.5 or 50 nM) shown by Table 3 were mixed, maintained for 15 min and after that the mixture was flown.
For orientation: Surface plasmon resonance follows binding to a sensor surface in real time, without labels.

For series [2], the target named is T1, IL-17. Briefly: SPR; IL-17R-Fc on chip. The following applies: chain copies: 2. As to the method: Whether aptamers shown by aptamer Nos. 1-49 inhibit the binding of IL-17 and IL-17 receptor was evaluated by the surface plasmon resonance method.
For the measurement, BIAcore2000 manufactured by BIAcore was used. […] As an analyte, IL-17 (100 or 150 nM) and an aptamer (50 or 100 nM) shown by aptamer No. 1-49 were mixed, maintained for 15 min and after that the mixture was flown.

B1: aptamer No. 89 (mixed)
mixed: GGGUAGCCGGAGGAGTCAGTAAUCGGUACCC
modifications: 2'-OMe (M), 2'-F (F), PS (S) as marked; uppercase DNA [2'-OMe: 1-5,7,8,10,11,13,14,17,22-31; 2'-F: 18; PS: 6,15,19; DNA: 9,16,20]
For the molecule B1, the binding signal in the series with IL-17 [1] was 35.1 % IL-17/IL-17R binding remaining.

B2: aptamer No. 79 (ssRNA)
RNA: GGGUAGCCGGAGGAGUCAGUAAUCGGUACCC
modifications: 2'-OMe (M), 2'-F (F) as marked [2'-OMe: 1-5,7,8,10,13,14,21-31; 2'-F: 11,16,17,18,20]
As for B2, the binding signal with IL-17 [1] is 28.2 % IL-17/IL-17R binding remaining.

B3: aptamer No. 32 (mixed)
mixed: GGGUAGCCGGAGGAGTCAGTAAUCGGTACCC
modifications: 2'-OMe (M), 2'-F (F) as marked; uppercase DNA [2'-OMe: 1,2,3,4,7,8,10,13,14,21,22,23,24,25,26; 2'-F: 17]
With B3, the binding signal with IL-17 [2] was 13.2 % IL-17/IL-17R binding remaining.

B4: aptamer No. 72 (mixed)
RNA: GGGUAGCCGGAGGAGUCAGUAAUCGGUACCC
modifications: 2'-OMe (M), 2'-F (F), PS (S) as marked; uppercase DNA [2'-OMe: 1-5,7,8,10,13,14,21-31; 2'-F: 11,16,17,18,20; PS: 6]
For B4, the binding signal with IL-17 [1] is 26.1 % IL-17/IL-17R binding remaining.

B5: aptamer No. 39 (mixed)
mixed: GGGUAGCCGGAGGAGTCAGTAAUCGGTACCC
modifications: 2'-OMe (M), 2'-F (F) as marked; uppercase DNA [2'-OMe: 1-4,7,8,10,13,14,22-26,28-31; 2'-F: 17]
Turning to B5, the binding signal with IL-17 [2] is 14.8 % IL-17/IL-17R binding remaining.

B6: aptamer No. 85 (mixed)
RNA: GGGUAGCCGGAGGAGUCAGUAAUCGGUACCC
modifications: 2'-OMe (M), 2'-F (F), PS (S) as marked; uppercase DNA [2'-OMe: 1-5,7,8,10,11,13,14,21-26,28-31; 2'-F: 16,17,18,20,27; PS: 6,15,19; DNA: 9]
For the molecule B6, the binding signal in the series with IL-17 [1] was 27.8 % IL-17/IL-17R binding remaining.

B7: aptamer No. 31 (mixed)
mixed: GGGUAGCCGGAGGAGTCAGTAAUCGGTACCC
modifications: 2'-OMe (M), 2'-F (F), PS (S) as marked; uppercase DNA [2'-OMe: 1,2,3,4,7,8,10,13,14,23,24,25,26,29,30,31; 2'-F: 17; PS: 6]
Regarding B7, the binding signal in the series with IL-17 [2] was 16.2 % IL-17/IL-17R binding remaining.

B8: aptamer No. 65 (mixed)
mixed: GGGUAGCCGGAGGAGTCAGTAAUCGGUACCC
modifications: 2'-OMe (M), 2'-F (F), PS (S) as marked; uppercase DNA [2'-OMe: 1-5,7,8,10,13,14,21-31; 2'-F: 11,17,18; PS: 6]
With B8, the binding signal with IL-17 [1] is 20.3 % IL-17/IL-17R binding remaining.

B9: aptamer No. 75 (mixed)
mixed: GGGUAGCCGGAGGAGTCAGTAAUCGGUACCC
modifications: 2'-OMe (M), 2'-F (F) as marked; uppercase DNA [2'-OMe: 1-5,7,8,10,13,14,21-26,28-31; 2'-F: 11,17,18,27]
Consider B9, for which the binding signal in the series with IL-17 [1] is 21.6 % IL-17/IL-17R binding remaining.

B10: aptamer No. 28 (mixed)
mixed: GGGUAGCCGGAGGAGTCAGTAAUCGGTACCC
modifications: 2'-OMe (M), 2'-F (F) as marked; uppercase DNA [2'-OMe: 1,2,3,4,7,8,10,13,14,23,24,25,26,28,29,30,31; 2'-F: 17]
As for B10, the binding signal with IL-17 [2] was 13.2 % IL-17/IL-17R binding remaining.

B11: aptamer No. 56 (mixed)
mixed: GGGUAGCCGGAGGAGTCAGTAAUCGGUACCC
modifications: 2'-OMe (M), 2'-F (F), PS (S) as marked; uppercase DNA [2'-OMe: 1,2,3,4,7,8,10,13,14,21,22,23,24,25,26,28; 2'-F: 11,17,18,27; PS: 6,15,19]
B11: the binding signal with IL-17 [1] was 27 % IL-17/IL-17R binding remaining.

B12: aptamer No. 84 (mixed)
RNA: GGGUAGCCGGAGGAGUCAGUAAUCGGUACCC
modifications: 2'-OMe (M), 2'-F (F), PS (S) as marked; uppercase DNA [2'-OMe: 1-5,7,8,10,11,13,14,21-31; 2'-F: 16,17,18,20; PS: 6,15,19; DNA: 9]
Take B12: in the series with IL-17 [1], the binding signal is 27.7 % IL-17/IL-17R binding remaining.

B13: aptamer No. 48 (mixed)
mixed: GGGUAGCCGGAGGAGTCAGTAAUCGGUACCC
modifications: 2'-OMe (M), 2'-F (F) as marked; uppercase DNA [2'-OMe: 1-4,7,8,10,13,14,23-26,28; 2'-F: 17,27]
With B13, in the series with IL-17 [2], the binding signal is 19.2 % IL-17/IL-17R binding remaining.

B14: aptamer No. 94 (mixed)
RNA: GGGUAGCCGGAGGAGUCAGUAAUCGGUACCC
modifications: 2'-OMe (M), 2'-F (F), PS (S) as marked; uppercase DNA [2'-OMe: 1-5,7,8,10,11,13,14,23-26,28-31; 2'-F: 16-18,20,27; PS: 6,15,19; DNA: 9]
Regarding B14, in the series with IL-17 [1], the binding signal is 29.3 % IL-17/IL-17R binding remaining.

B15: aptamer No. 77 (mixed)
RNA: GGGUAGCCGGAGGAGUCAGUAAUCGGUACCC
modifications: 2'-OMe (M), 2'-F (F) as marked; uppercase DNA [2'-OMe: 1-5,7,8,10,13,14,21-26,29-31; 2'-F: 11,16,17,18,20,27; DNA: 28]
On to B15, for which the binding signal with IL-17 [1] is 23.9 % IL-17/IL-17R binding remaining.

B16: aptamer No. 52 (mixed)
mixed: GGGUAGCCGGAGGAGTCAGTAAUCGGUACCC
modifications: 2'-OMe (M), 2'-F (F), PS (S) as marked; uppercase DNA [2'-OMe: 1-4,7,8,10,13,14,21-26,28; 2'-F: 11,17,18,27; PS: 6,15]
With B16, the binding signal with IL-17 [1] is 27.6 % IL-17/IL-17R binding remaining.

B17: aptamer No. 76 (mixed)
RNA: GGGUAGCCGGAGGAGUCAGUAAUCGGUACCC
modifications: 2'-OMe (M), 2'-F (F) as marked; uppercase DNA [2'-OMe: 1-5,7,8,10,13,14,21-26,29-31; 2'-F: 11,16,17,18,20,27]
Turning to B17, the binding signal in the series with IL-17 [1] was 24.1 % IL-17/IL-17R binding remaining.

B18: aptamer No. 90 (mixed)
mixed: GGGUAGCCGGAGGAGTCAGTAAUCGGUACCC
modifications: 2'-OMe (M), 2'-F (F), PS (S) as marked; uppercase DNA [2'-OMe: 1-5,7,8,10,11,13,14,17,21,23-31; 2'-F: 18; PS: 6,15,19; DNA: 9,16,20]
Consider B18, for which the binding signal in the series with IL-17 [1] is 41.2 % IL-17/IL-17R binding remaining.

B19: aptamer No. 63 (mixed)
mixed: GGGUAGCCGGAGGAGTCAGTAAUCGGUACCC
modifications: 2'-OMe (M), 2'-F (F), PS (S) as marked; uppercase DNA [2'-OMe: 1,2,3,4,5,7,8,10,13,14,21,22,23,24,25,26,28,29,30,31; 2'-F: 11,17,18,27; PS: 6,15,19]
Consider B19, for which, in the series with IL-17 [1], the binding signal was 27.1 % IL-17/IL-17R binding remaining.

B20: aptamer No. 37 (mixed)
mixed: GGGUAGCCGGAGGAGTCAGTAAUCGGTACCC
modifications: 2'-OMe (M), 2'-F (F) as marked; uppercase DNA; (NI) printed, likely (M) [2'-OMe: 1,2,3,4,7,10,13,14,23,24,25,26,28,29,30,31; 2'-F: 17; 8 printed (NI), likely 2'-OMe]
In the case of B20, in the series with IL-17 [2], the binding signal is 15.5 % IL-17/IL-17R binding remaining.

B21: aptamer No. 66 (mixed)
mixed: GGGUAGCCGGAGGAGTCAGTAAUCGGUACCC
modifications: 2'-OMe (M), 2'-F (F), PS (S) as marked; uppercase DNA [2'-OMe: 1-5,7,8,10,13,14,21-31; 2'-F: 11,17,18; PS: 6,15,19]
Consider B21, for which the binding signal with IL-17 [1] is 28.7 % IL-17/IL-17R binding remaining.

B22: aptamer No. 58 (mixed)
mixed: GGGUAGCCGGAGGAGTCAGTAAUCGGUACCC
modifications: 2'-OMe (M), 2'-F (F), PS (S) as marked; uppercase DNA [2'-OMe: 1,2,3,4,7,8,10,13,14,19,21,22,23,24,25,26,28; 2'-F: 11,17,18,27; PS: 6,12,15]
On to B22, for which the binding signal with IL-17 [1] is 33.7 % IL-17/IL-17R binding remaining.

B23: aptamer No. 62 (mixed)
mixed: GGGUAGCCGGAGGAGTCAGTAAUCGGUACCC
modifications: 2'-OMe (M), 2'-F (F), PS (S) as marked; uppercase DNA [2'-OMe: 1,2,3,4,5,7,8,10,13,14,21,22,23,24,25,26,28,29,30,31; 2'-F: 11,17,18,27; PS: 6]
In the case of B23, in the series with IL-17 [1], the binding signal is 25.9 % IL-17/IL-17R binding remaining.

B24: aptamer No. 82 (mixed)
mixed: GGGUAGCCGGAGGAGTCAGTAAUCGGUACCC
modifications: 2'-OMe (M), 2'-F (F), PS (S) as marked; uppercase DNA [2'-OMe: 1-5,7,8,10,11,13,14,21-31; 2'-F: 17,18; PS: 6,15,19; DNA: 9,16,20]
For the molecule B24, the binding signal with IL-17 [1] is 5.28 % IL-17/IL-17R binding remaining.

The record behind these values is patent US20160046944, “APTAMER TO IL-17 AND USE THEREOF” (THE UNIVERSITY OF TOKYO, published 2016).
